According to the supplement of paper PMC5998384:

Tests used:
HeLa Kyoto [1] = assay: solubility in G1/S (NP-40 vs SDS abundance) (log2 ratio); higher = more soluble; settings: cell cycle stage: G1/S
HeLa Kyoto [2] = assay: solubility change mitosis vs G1/S (difference of NP-40 vs SDS log2 ratios) (log2 ratio difference); higher = more soluble in mitosis
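Throughout, for solubility change mitosis vs G1/S (difference of NP-40 vs SDS log2 ratios): synchronized HeLa Kyoto cells (double thymidine block for G1/S, nocodazole release for mitosis), protein amounts in NP-40 versus SDS lysates quantified by mass spectrometry, three biological replicates.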
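Throughout, for solubility in G1/S (NP-40 vs SDS abundance): HeLa Kyoto cells arrested at G1/S by double thymidine block, proteins quantified by TMT10plex mass spectrometry in mild NP-40 versus SDS extracts, three biological replicates.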

Row | Substance | solubility in G1/S (log2) (HeLa Kyoto [1]) | solubility change mitosis (log2) (HeLa Kyoto [2])
1 | MVMADGPRHLQRGPVRVGFYDIEGTLGKGNFAVVKLGRHRITKTEVAIKIIDKSQLDAVNLEKIYREVQIMKMLDHPHIIKLYQVMETKSMLYLVTEYAKNGEIFDYLANHGRLNESEARRKFWQILSAVDYCHGRKIVHRDLKAENLLLDNNMNIKIADFGFGNFFKSGELLATWCGSPPYAAPEVFEGQQYEGPQLDIWSMGVVLYVLVCGALPFDGPTLPILRQRVLEGRFRIPYFMSEDCEHLIRRMLVLDPSKRLTIAQIKEHKWMLIEVPVQRPVLYPQEQENEPSIGEFNEQVLRLMHSLGIDQQKTIESLQNKSYNHFAAIYFLLVERLKSHRSSFPVEQRLDGRQRRPSTIAEQTVAKAQTVGLPVTMHSPNMRLLRSALLPQASNVEAFSFPASGCQAEAAFMEEECVDTPKVNGCLLDPVPPVLVRKGCQSLPSNMMETSIDEGLETEGEAEEDPAHAFEAFQSTRSGQRRHTLSEVTNQLVVMPGAGKIFSMNDSPSLDSVDSEYDMGSVQRDLNFLEDNPSLKDIMLANQPSPRMTSPFISLRPTNPAMQALSSQKREVHNRSPVSFREGRRASDTSLTQGIVAFRQHLQNLARTKGILELNKVQLLYEQIGPEADPNLAPAAPQLQDLASSCPQEEVSQQQESVSTLPASVHPQLSPRQSLETQYLQHRLQKPSLLSKAQNTCQLYCKEPPRSLEQQLQEHRLQQKRLFLQKQSQLQAYFNQMQIAESSYPQPSQQLPLPRQETPPPSQQAPPFSLTQPLSPVLEPSSEQMQYSPFLSQYQEMQLQPLPSTSGPRAAPPLPTQLQQQQPPPPPPPPPPRQPGAAPAPLQFSYQTCELPSAASPAPDYPTPCQYPVDGAQQSDLTGPDCPRSPGLQEAPSSYDPLALSELPGLFDCEMLDAVDPQHNGYVLVN [SIK2] | 0.0463 | -0.0513
2 | MEAPPVTMMPVTGGTINMMEYLLQGSVLDHSLESLIHRLRGLCDNMEPETFLDHEMVFLLKGQQASPFVLRARRSMDRAGAPWHLRYLGQPEMGDKNRHALVRNCVDIATSENLTDFLMEMGFRMDHEFVAKGHLFRKGIMKIMVYKIFRILVPGNTDSTEALSLSYLVELSVVAPAGQDMVSDDMKNFAEQLKPLVHLEKIDPKRLM [MED18] | 0.212 | -0.161
3 | MEKLSALQEQKGELRKRLSYTTHKLEKLETEFDSTRHYLEIELRRAQEELEKVTEKLRRIQSNYMALQRINQELEDKLYRMGQHYEEEKRALSHEIVALNSHLLEAKVTIDKLSEDNELYRKDCNLAAQLLQCSQTYGRVHKVSELPSDFQERVSLHMEKHGCSLPSPLCHPAYADSVPTCVIAKVLEKPDPASLSSRLSDASARDLAFCDGVEKPGPRPPYKGDIYCSDTALYCPEERRRDRRPSVDAPVTDVGFLRAQNSTDSAAEEEEEAEAAAFPAGFQHEAFPSYAGSLPTSSSYSSFSATSEEKEHAQASTLTASQQAIYLNSRDELFDRKPPATTYEGSPRFAKATAAVAAPLEAEVAPGFGRTMSPYPAETFRFPASPGPQQALMPPNLWSLRAKPGTARLPGEDMRGQWRPLSVEDIGAYSYPVSAAGRASPCSFSERYYGGAGGSPGKKADGRASPLYASYKADSFSEGDDLSQGHLAEPCFLRAGGDLSLSPGRSADPLPGYAPSEGGDGDRLGVQLCGTASSPEPEQGSRDSLEPSSMEASPEMHPAARLSPQQAFPRTGGSGLSRKDSLTKAQLYGTLLN [BEGAIN] | 0.208 | 0.103
4 | MAAAAEERMAEEGGGGQGDGGSSLASGSTQRQPPPPAPQHPQPGSQALPAPALAPDQLPQNNTLVALPIVAIENILSFMSYDEISQLRLVCKRMDLVCQRMLNQGFLKVERYHNLCQKQVKAQLPRRESERRNHSLARHADILAAVETRLSLLNMTFMKYVDSNLCCFIPGKVIDEIYRVLRYVNSTRAPQRAHEVLQELRDISSMAMEYFDEKIVPILKRKLPGSDVSGRLMGSPPVPGPSAALTTMQLFSKQNPSRQEVTKLQQQVKTNGAGVTVLRREISELRTKVQEQQKQLQDQDQKLLEQTQIIGEQNARLAELERKLREVMESAVGNSSGSGQNEESPRKRKKATEAIDSLRKSKRLRNRK [FBXO28] | 0.375 | 0.262
5 | MKPVHERSQECLPPKKRDLPVTSEDMGRTTSCSTNHTPSSDASEWSRGVVVAGQSQAGARVSLGGDGAEAITGLTVDQYGMLYKVAVPPATFSPTGLPSVVNMSPLPPTFNVASSLIQHPGIHYPPLHYAQLPSTSLQFIGSPYSLPYAVPPNFLPSPLLSPSANLATSHLPHFVPYASLLAEGATPPPQAPSPAHSFNKAPSATSPSGQLPHHSSTQPLDLAPGRMPIYYQMSRLPAGYTLHETPPAGASPVLTPQESQSALEAAAANGGQRPRERNLVRRESEALDSPNSKGEGQGLVPVVECVVDGQLFSGSQTPRVEVAAPAHRGTPDTDLEVQRVVGALASQDYRVVAAQRKEEPSPLNLSHHTPDHQGEGRGSARNPAELAEKSQARGFYPQSHQEPVKHRPLPKAMVVANGNLVPTGTDSGLLPVGSEILVASSLDVQARATFPDKEPTPPPITSSHLPSHFMKGAIIQLATGELKRVEDLQTQDFVRSAEVSGGLKIDSSTVVDIQESQWPGFVMLHFVVGEQQSKVSIEVPPEHPFFVYGQGWSSCSPGRTTQLFSLPCHRLQVGDVCISISLQSLNSNSVSQASCAPPSQLGPPRERPERTVLGSRELCDSEGKSQPAGEGSRVVEPSQPESGAQACWPAPSFQRYSMQGEEARAALLRPSFIPQEVKLSIEGRSNAGK [ATXN1L] | 0.172 | -0.12
6 | MDKNIGEQLNKAYEAFRQACMDRDSAVKELQQKTENYEQRIREQQEQLSLQQTIIDKLKSQLLLVNSTQDNNYGCVPLLEDSETRKNNLTLDQPQDKVISGIAREKLPKVRRQEVSSPRKETSARSLGSPLLHERGNIEKTFWDLKEEFHKICMLAKAQKDHLSKLNIPDTATETQCSVPIQCTDKTDKQEALFKPQAKDDINRGAPSITSVTPRGLCRDEEDTSFESLSKFNVKFPPMDNDSTFLHSTPERPGILSPATSEAVCQEKFNMEFRDNPGNFVKTEETLFEIQGIDPIASAIQNLKTTDKTKPSNLVNTCIRTTLDRAACLPPGDHNALYVNSFPLLDPSDAPFPSLDSPGKAIRGPQQPIWKPFPNQDSDSVVLSGTDSELHIPRVCEFCQAVFPPSITSRGDFLRHLNSHFNGET [TANK] | -0.138 | -0.0338
7 | MSSIKHLVYAVIRFLREQSQMDTYTSDEQESLEVAIQCLETVFKISPEDTHLAVSQPLTEMFTSSFCKNDVLPLSNSVPEDVGKADQLKDEGNNHMKEENYAAAVDCYTQAIELDPNNAVYYCNRAAAQSKLGHYTDAIKDCEKAIAIDSKYSKAYGRMGLALTALNKFEEAVTSYQKALDLDPENDSYKSNLKIAEQKLREVSSPTGTGLSFDMASLINNPAFISMAASLMQNPQVQQLMSGMMTNAIGGPAAGVGGLTDLSSLIQAGQQFAQQIQQQNPELIEQLRNHIRSRSFSSSAEEHS [SGTB] | 0.092 | 0.321
8 | MNALLEQKEQQERLREAAALGDIREVQKLVESGVDVNSQNEVNGWTCLHWACKRNHGQVVSYLLKSGADKEILTTKGEMPVQLTSRREIRKIMGVEEEDDDDDDDDNLPQLKKESELPFVPNYLANPAFPFIYTPTAEDSAQMQNGGPSTPPASPPADGSPPLLPPGEPPLLGTFPRDHTSLALVQNGDVSAPSAILRTPESTKPGPVCQPPVSQSRSLFSSVPSKPPMSLEPQNGTYAGPAPAFQPFFFTGAFPFNMQELVLKVRIQNPSLRENDFIEIELDRQELTYQELLRVCCCELGVNPDQVEKIRKLPNTLLRKDKDVARLQDFQELELVLMISENNFLFRNAASTLTERPCYNRRASKLTY [ANKRD40] | -0.0058 | -0.00743
9 | HELZ2 | -0.293 | -0.0125
10 | DNAJB5 | 0.153 | 0.00156
11 | SYNJ2 | -0.61 | 0.309
12 | MEELSSVGEQVFAAECILSKRLRKGKLEYLVKWRGWSSKHNSWEPEENILDPRLLLAFQKKEHEKEVQNRKRGKRPRGRPRKLTAMSSCSRRSKLKEPDAPSKSKSSSSSSSSTSSSSSSDEEDDSDLDAKRGPRGRETHPVPQKKAQILVAKPELKDPIRKKRGRKPLPPEQKATRRPVSLAKVLKTARKDLGAPASKLPPPLSAPVAGLAALKAHAKEACGGPSAMATPENLASLMKGMASSPGRGGISWQSSIVHYMNRMTQSQAQAASRLALKAQATNKCGLGLDLKVRTQKGELGMSPPGSKIPKAPSGGAVEQKVGNTGGPPHTHGASRVPAGCPGPQPAPTQELSLQVLDLQSVKNGMPGVGLLARHATATKGVPATNPAPGKGTGSGLIGASGATMPTDTSKSEKLASRAVAPPTPASKRDCVKGSATPSGQESRTAPGEARKAATLPEMSAGEESSSSDSDPDSASPPSTGQNPSVSVQTSQDWKPTRSLIEHVFVTDVTANLITVTVKESPTSVGFFNLRHY [CBX2] | -0.63 | 0.268
13 | MARGGDTGCTGPSETSASGAAAIALPGLEGPATDAQCQTLPLTVLKSRSPSPRSLPPALSCPPPQPAMLEHLSSLPTQMDYKGQKLAEQMFQGIILFSAIVGFIYGYVAEQFGWTVYIVMAGFAFSCLLTLPPWPIYRRHPLKWLPVQESSTDDKKPGERKIKRHAKNN [SPCS1] | -0.248 | -0.00723
14 | MFPLKDAEMGAFTFFASALPHDVCGSNGLPLTPNSIKILGRFQILKTITHPRLCQYVDISRGKHERLVVVAEHCERSLEDLLRERKPVSCSTVLCIAFEVLQGLQYMNKHGIVHRALSPHNILLDRKGHIKLAKFGLYHMTAHGDDVDFPIGYPSYLAPEVIAQGIFKTTDHMPSKKPLPSGPKSDVWSLGIILFELCVGRKLFQSLDISERLKFLLTLDCVDDTLIVLAEEHGCLDIIKELPETVIDLLNKCLTFHPSKRPTPDQLMKDKVFSEVSPLYTPFTKPASLFSSSLRCADLTLPEDISQLCKDINNDYLAERSIEEVYYLWCLAGGDLEKELVNKEIIRSKPPICTLPNFLFEDGESFGQGRDRSSLLDDTTVTLSLCQLRNRLKDVGGEAFYPLLEDDQSNLPHSNSNNELSAAATLPLIIREKDTEYQLNRIILFDRLLKAYPYKKNQIWKEARVDIPPLMRGLTWAALLGVEGAIHAKYDAIDKDTPIPTDRQIEVDIPRCHQYDELLSSPEGHAKFRRVLKAWVVSHPDLVYWQGLDSLCAPFLYLNFNNEALAYACMSAFIPKYLYNFFLKDNSHVIQEYLTVFSQMIAFHDPELSNHLNEIGFIPDLYAIPWFLTMFTHVFPLHKIFHLWDTLLLGNSSFPFCIGVAILQQLRDRLLANGFNECILLFSDLPEIDIERCVRESINLFCWTPKSATYRQHAQPPKPSSDSSGGRSSAPYFSAECPDPPKTDLSRESIPLNDLKSEVSPRISAEDLIDLCELTVTGHFKTPSKKTKSSKPKLLVVDIRNSEDFIRGHISGSINIPFSAAFTAEGELTQGPYTAMLQNFKGKVIVIVGHVAKHTAEFAAHLVKMKYPRICILDGGINKIKPTGLLTIPSPQI [TBCK] | -0.278 | -0.162
15 | MVGRSRRRGAAKWAAVRAKAGPTLTDENGDDLGLPPSPGDTSYYQDQVDDFHEARSRAALAKGWNEVQSGDEEDGEEEEEEVLALDMDDEDDEDGGNAGEEEEEENADDDGGSSVQSEAEASVDPSLSWGQRKKLYYDTDYGSKSRGRQSQQEAEEEEREEEEEAQIIQRRLAQALQEDDFGVAWVEAFAKPVPQVDEAETRVVKDLAKVSVKEKLKMLRKESPELLELIEDLKVKLTEVKDELEPLLELVEQGIIPPGKGSQYLRTKYNLYLNYCSNISFYLILKARRVPAHGHPVIERLVTYRNLINKLSVVDQKLSSEIRHLLTLKDDAVKKELIPKAKSTKPKPKSVSKTSAAACAVTDLSDDSDFDEKAKLKYYKEIEDRQKLKRKKEENSTEEQALEDQNAKRAITYQIAKNRGLTPRRKKIDRNPRVKHREKFRRAKIRRRGQVREVRKEEQRYSGELSGIRAGVKKSIKLK [UTP3] | -1.76 | 1.04
